In PMC11385167 (mAbs, 2024):

Target: T1, human MR C-type 1, full extracellular domain (human, UniProt P22897 19-1389)
T1 sequence (looked up): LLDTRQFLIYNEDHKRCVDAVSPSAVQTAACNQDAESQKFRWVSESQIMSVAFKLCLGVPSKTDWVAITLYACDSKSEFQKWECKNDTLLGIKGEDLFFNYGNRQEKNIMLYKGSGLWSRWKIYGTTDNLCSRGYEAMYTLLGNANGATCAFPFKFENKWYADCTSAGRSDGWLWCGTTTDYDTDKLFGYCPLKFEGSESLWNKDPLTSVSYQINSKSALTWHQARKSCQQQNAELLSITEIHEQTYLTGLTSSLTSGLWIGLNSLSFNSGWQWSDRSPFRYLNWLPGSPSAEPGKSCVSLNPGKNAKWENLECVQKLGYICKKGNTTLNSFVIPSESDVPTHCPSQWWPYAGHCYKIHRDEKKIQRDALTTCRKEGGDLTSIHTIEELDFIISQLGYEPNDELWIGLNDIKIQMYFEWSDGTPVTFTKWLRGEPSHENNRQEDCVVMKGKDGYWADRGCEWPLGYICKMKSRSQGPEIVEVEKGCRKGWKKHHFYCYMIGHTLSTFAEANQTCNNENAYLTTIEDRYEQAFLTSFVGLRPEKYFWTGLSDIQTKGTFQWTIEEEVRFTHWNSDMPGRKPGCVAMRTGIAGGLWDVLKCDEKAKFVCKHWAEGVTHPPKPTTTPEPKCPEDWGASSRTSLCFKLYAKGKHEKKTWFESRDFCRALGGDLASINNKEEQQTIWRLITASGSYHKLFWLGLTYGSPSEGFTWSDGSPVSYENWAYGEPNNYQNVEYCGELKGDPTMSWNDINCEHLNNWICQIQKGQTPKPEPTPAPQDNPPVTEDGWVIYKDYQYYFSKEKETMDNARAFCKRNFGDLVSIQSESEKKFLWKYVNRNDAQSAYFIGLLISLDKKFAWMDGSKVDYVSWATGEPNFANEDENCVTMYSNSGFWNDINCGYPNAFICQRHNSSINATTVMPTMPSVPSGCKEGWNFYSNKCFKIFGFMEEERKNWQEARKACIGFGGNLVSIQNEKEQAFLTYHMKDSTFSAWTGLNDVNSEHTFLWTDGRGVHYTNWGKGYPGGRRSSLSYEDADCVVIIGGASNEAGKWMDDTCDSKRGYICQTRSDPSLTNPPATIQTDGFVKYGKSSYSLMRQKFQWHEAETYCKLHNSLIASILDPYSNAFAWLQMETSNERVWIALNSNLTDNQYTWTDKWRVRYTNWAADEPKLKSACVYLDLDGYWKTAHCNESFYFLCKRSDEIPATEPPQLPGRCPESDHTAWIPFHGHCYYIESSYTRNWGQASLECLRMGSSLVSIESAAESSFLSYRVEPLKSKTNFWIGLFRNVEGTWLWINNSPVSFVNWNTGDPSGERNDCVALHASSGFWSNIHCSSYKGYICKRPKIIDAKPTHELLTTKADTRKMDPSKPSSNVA
Assay: SPR

- Kd: 1300 nM
B1: RNAse B (enzyme, UniProt P61823 27-150, looked up)
chain: KETAAAKFERQHMDSSTSAASSSNYCNQMMKSRNLTKDRCKPVNTFVHESLADVQAVCSQKNVACKNGQTNCYQSYSTMSITDCRETGSSKYPNCAYKTTQANKHIIVACEGNPYVPVHFDASV
modifications: single N-glycosylation site containing mainly M5 and M6 N-glycans
